The text below walks through data of patent publication US20250353907A1 (SHANGHAI SIMNOVA BIOTECHNOLOGY, published 2025).

The target of this assay is T1, recombinant human CD19-His (human, UniProt P15391 20-291, limits assumed).
T1 construct: This is the analyte in SPR; also called human CD19 protein; CD19 antigen protein; not shown: His tag
T1 sequence (looked up): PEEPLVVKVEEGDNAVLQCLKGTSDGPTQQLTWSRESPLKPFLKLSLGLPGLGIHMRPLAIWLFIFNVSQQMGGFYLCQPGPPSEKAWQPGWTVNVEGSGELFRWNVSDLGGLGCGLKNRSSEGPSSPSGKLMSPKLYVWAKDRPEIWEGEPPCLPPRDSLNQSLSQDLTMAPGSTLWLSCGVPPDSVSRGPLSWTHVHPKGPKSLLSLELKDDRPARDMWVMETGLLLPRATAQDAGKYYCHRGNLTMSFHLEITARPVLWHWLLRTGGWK
Kind of assay: SPR (Biacore), CD19-His as analyte, 1:1 Langmuir model. Here is the method: The anti-human CD19 antibody was captured using a Protein A chip (GE Healthcare; 29-127-558).
The sample and running buffer was HBS-EP+ (10 mM HEPES, 150 mM NaCl, 3 mM EDTA, 0.05% surfactant P20) (GE Healthcare; BR-1006-69). The flow cell was set at 25° C. The sample block was set at 16° C. Both were pretreated with the running buffer. In each cycle, first, the antibody to be tested was captured using the Protein A chip, and then a single concentration of CD19 antigen protein was injected. The association and dissociation processes of the antibody with the antigen protein were recorded, and finally, the chip was regenerated using Glycine pH 1.5 (GE Healthcare; BR-1003-54). The association was determined by injecting different concentrations of recombinant human CD19-His in the solution and maintaining for 240 s, wherein the flow rate was 30 μL/min, and the protein was diluted in a 1:1 dilution ratio from 200 nM (see detailed results for actual concentrations tested) to obtain 5 concentrations in total. The dissociation phase was monitored for up to 600 s and triggered by switching from the sample solution to the running buffer. The surface was regenerated by washing with 10 mM glycine solution (pH 1.5) at a flow rate of 30 μL/min for 30 s. The difference in bulk refractive index was corrected by subtracting the responses obtained from the […]. Blank injections were also subtracted (=double reference). The Langmuir 1:1 model was used to calculate the apparent KD and other kinetic parameters.
(SPR reads the build-up and loss of mass on a sensor chip optically.)

B1: hFMC63 (humanized FMC63, hFMC63-VH1 + hFMC63-VL1) (antibody, V domains shown)
VH: EVTLKESGPVLVKPTETLTLTCTVSGFSLSDYGVSWIRQPPGKALEWLAVIWGSETTYYNSALKSRLTISKDTSKSQVVLTMTNMDPVDTATYYCAKHYYYGGSYAMDYWGQGTTVTVSS
VL: DIQMTQSPSSLSASVGDRVTITCRASQDISKYLNWYQQKPGGAVKLLIYHTSRLHSGVPSRFSGSGSGTDYTLTISSLQPEDFATYYCQQGNTLPYTFGGGTKVEIK
On to B1, for which the equilibrium dissociation constant (Kd) is 0.0195 nM, the koff was 1.8e-06 s⁻¹ and the kon was 92400 M⁻¹ s⁻¹.

One may read the Kd as the constant that tells how readily two partners part at equilibrium. As usually defined, the koff is the first-order rate constant of dissociation. Broadly, the kon is a measure of how fast the partners come together.
